Results: patent US20180362645A1 (Amgen, published 2018)

T1: human pituitary adenylate cyclase-activating polypeptide type I receptor (human, UniProt P41586 21-468)
T1 construct: whole, on cells; On SH-SY5Y or recombinant CHO cells (cAMP assay), as membranes of hPAC-1 AequoScreen CHO cells (radioligand assay) and on CHOK1/huPac1 whole cells (KinExA); also called human PAC1; hPAC1
T1 sequence (looked up): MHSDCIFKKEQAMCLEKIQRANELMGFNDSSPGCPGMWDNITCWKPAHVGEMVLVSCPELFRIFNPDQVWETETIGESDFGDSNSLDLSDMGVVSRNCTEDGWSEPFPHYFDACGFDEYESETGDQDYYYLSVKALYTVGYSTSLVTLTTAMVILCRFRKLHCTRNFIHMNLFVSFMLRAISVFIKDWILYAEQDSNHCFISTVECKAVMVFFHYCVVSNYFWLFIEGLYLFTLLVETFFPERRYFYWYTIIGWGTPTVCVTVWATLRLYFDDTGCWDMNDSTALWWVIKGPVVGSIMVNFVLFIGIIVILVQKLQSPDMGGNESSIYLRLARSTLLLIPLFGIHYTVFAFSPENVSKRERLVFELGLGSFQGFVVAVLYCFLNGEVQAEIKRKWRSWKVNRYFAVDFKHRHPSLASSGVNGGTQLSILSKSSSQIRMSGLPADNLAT

T2: human VPAC2 (human, UniProt P41587 24-438)
T2 sequence (looked up): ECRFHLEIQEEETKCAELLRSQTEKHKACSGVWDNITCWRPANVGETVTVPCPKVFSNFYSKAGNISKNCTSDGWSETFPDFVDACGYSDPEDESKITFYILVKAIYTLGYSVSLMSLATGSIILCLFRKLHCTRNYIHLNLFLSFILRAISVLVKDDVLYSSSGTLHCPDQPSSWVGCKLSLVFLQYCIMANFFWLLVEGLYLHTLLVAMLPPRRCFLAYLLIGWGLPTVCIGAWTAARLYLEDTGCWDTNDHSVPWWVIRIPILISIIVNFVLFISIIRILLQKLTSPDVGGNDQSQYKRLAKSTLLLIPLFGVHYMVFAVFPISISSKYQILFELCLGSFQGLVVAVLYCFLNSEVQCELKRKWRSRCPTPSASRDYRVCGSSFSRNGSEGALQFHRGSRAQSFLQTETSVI

T3: human VPAC1 (human, UniProt P32241 31-457)
T3 sequence (looked up): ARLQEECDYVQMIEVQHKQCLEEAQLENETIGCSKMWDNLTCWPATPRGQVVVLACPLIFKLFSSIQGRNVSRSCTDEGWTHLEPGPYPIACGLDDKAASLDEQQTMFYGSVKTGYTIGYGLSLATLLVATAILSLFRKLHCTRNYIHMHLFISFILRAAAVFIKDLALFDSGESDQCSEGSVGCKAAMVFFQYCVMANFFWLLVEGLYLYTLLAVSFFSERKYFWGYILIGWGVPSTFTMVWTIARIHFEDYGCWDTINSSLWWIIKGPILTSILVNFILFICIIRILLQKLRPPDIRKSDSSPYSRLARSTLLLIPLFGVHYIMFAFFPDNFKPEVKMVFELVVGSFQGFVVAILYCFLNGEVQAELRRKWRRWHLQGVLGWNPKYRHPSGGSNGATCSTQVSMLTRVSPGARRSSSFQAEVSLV

T4: rat PAC1 (rat, UniProt P32215 20-523)
T4 sequence (looked up): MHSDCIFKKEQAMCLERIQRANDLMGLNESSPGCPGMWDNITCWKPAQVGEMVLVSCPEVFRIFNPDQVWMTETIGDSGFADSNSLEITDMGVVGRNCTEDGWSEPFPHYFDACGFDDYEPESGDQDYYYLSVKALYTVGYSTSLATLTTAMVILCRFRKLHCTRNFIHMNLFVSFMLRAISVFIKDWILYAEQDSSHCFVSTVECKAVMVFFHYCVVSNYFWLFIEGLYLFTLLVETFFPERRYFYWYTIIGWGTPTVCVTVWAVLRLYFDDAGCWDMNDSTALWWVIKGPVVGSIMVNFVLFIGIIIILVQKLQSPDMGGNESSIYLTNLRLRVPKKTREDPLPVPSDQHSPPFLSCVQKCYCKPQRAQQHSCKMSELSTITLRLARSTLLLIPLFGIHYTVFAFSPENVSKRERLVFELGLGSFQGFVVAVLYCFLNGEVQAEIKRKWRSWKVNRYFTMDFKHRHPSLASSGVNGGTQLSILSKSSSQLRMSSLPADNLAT


Columns and labels:
[1] = target: T1, human pituitary adenylate …; experiment: radioligand competition, hPAC1 CHO membranes; competitor 125I-01B; 125I-01B as tracer
Protocol: (§1) The plates were incubated at room temperature for 2 hours with shaking at 60 rpm, and then the contents of each well were filtered over 0.5% polyethyleneimine (PEI)-treated (for at least two hours) GF/C 96-well filter plates. The GF/C filter plates were washed five times with ice-cold 50 mM Tris, pH 7.5 and dried in an oven at 55° C. for 1 hour. The bottoms of the GF/C plates were then sealed. 40 μl Microscint™ 20 was added to each well, the tops of the GF/C plates were sealed with TopSeal™-A (a press-on adhesive sealing film), and the GF/C plates were counted with TopCount NXT (Packard). The data were analyzed using Prizm (GraphPad Software Inc.)

[2] = target: T1, human pituitary adenylate …; experiment: radioligand competition, hPAC1 CHO membranes; competitor 125I-29B
Protocol: as §1

[3] = target: T1, human pituitary adenylate …; experiment: radioligand competition, hPAC1 CHO membranes; competitor 125I-14A
Protocol: as §1

[4] = target: T1, human pituitary adenylate …; experiment: radioligand competition, hPAC1 CHO membranes; competitor 125I-28A
Protocol: as §1

[5] = target: T1, human pituitary adenylate …; experiment: radioligand competition, hPAC1 CHO membranes; competitor 125I-14B
Protocol: as §1

[6] = target: T1, human pituitary adenylate …; experiment: radioligand competition, hPAC1 CHO membranes; competitor 125I-29A
Protocol: as §1

[7] = target: T1, human pituitary adenylate …; experiment: radioligand competition, hPAC1 CHO membranes; competitor 125I-39A
Protocol: as §1

[8] = target: T1, human pituitary adenylate …; experiment: radioligand competition, hPAC1 CHO membranes; competitor 125I-39B
Protocol: as §1

[9] = target: T1, human pituitary adenylate …; experiment: radioligand competition, hPAC1 CHO membranes; competitor 125I-26B
Protocol: as §1

[10] = target: T1, human pituitary adenylate …; experiment: radioligand competition, hPAC1 CHO membranes; competitor 125I-26A
Protocol: as §1

[11] = target: T1, human pituitary adenylate …; experiment: radioligand competition, hPAC1 CHO membranes; competitor 125I-01B
Protocol: as §1

[12] = target: T1, human pituitary adenylate …; experiment: KinExA, CHOK1/huPac1 whole cells
Protocol: Binding of anti-Pac1 antibody with CHOK1/huPac1 cells were tested on KinExA. […] Samples containing anti-Pac1 antibody and whole cells were incubated with rotation at room temperature for 4 hours before 5-minute 220-g centrifugation at 4° C. to separate the whole cells and anti-Pac1 antibody-cell complexes from unbound anti-Pac1 antibody. The supernatants containing free anti-Pac1 antibody were filtered through 0.22 μm filter before loading to the goat-anti-huFc-coated beads on KinExA. […] The binding signal is proportional to the concentration of free anti-Pac1 antibody in solution at each cell density. Equilibrium dissociation constant (KD) was estimated by n-curve analysis in KinExA™ Pro software (Sapidyne Instruments, Inc., Boise, Id.).

human VPAC2 = target: T2, human VPAC2; experiment: cell-based or functional assay
cyno PAC1 = cyno PAC1 (cynomolgus); experiment: cell-based or functional assay
human VPAC1 = target: T3, human VPAC1; experiment: cell-based or functional assay
rat PAC1 = target: T4, rat PAC1; experiment: cell-based or functional assay
[13] = target: T1, human pituitary adenylate …; experiment: cell-based or functional assay

| Ki [1] | Ki [2] | Ki [3] | Ki [4] | Ki [5] | Ki [6] | Ki [7] | Ki [8] | Ki [9] | Ki [10] | Ki [11] | Kd [12] | hVPAC2 IC50 (cAMP assay) (human VPAC2) | cyno PAC1 IC50 (cAMP assay) (cyno PAC1) | hVPAC1 IC50 (cAMP assay) (human VPAC1) | rat PAC1 IC50 (cAMP assay) (rat PAC1) | hPAC1 IC50 (cAMP assay) [13] | Binder |
| --- | --- | --- | --- | --- | --- | --- | --- | --- | --- | --- | --- | --- | --- | --- | --- | --- | --- |
| 4.98 nM | 2.39 nM | 4.08 nM | 2.06 nM | 7.74 nM | 4.05 nM | 2.78 nM | 4.91 nM | 6.26 nM | 2.51 nM | – | – | – | – | – | – | – | FTDSYSRYRKQMAVKKYLAAVLGKRYKQRVKNK (peptide, UniProt P18509 137-169, looked up, domain: PACAP 6-38) [PACAP 6-38] |
| – | 0.08 nM | – | – | 0.08 nM | – | – | 0.05 nM | 0.07 nM | – | 0.14 nM | 0.015 nM | > 10000 nM | 0.5 nM | > 10000 nM | 50.7 nM | 0.9 nM | 29B (antibody, human IgG1, kappa, N297G, "B" suffix: aglycosylated IgG1 variant (N297G); also called LC-11 and HC-40) heavy: not shown light: DIQLTQSPSFLSASVGDRVTITCRASQSIGRSLHWYQQKPGKAPKLLFKYASQSLSGVPSRFSGSGSGTEFTLTISSLQPEDFATYYCHQSSRLPFTFGPGTKVDIKRTVAAPSVFIFPPSDEQLKSGTASVVCLLNNFYPREAKVQWKVDNALQSGNSQESVTEQDSKDSTYSLSSTLTLSKADYEKHKVYACEVTHQGLSSPVTKSFNRGEC |
